In this assay the target is heat shock protein 70 (HSP70) (human (endogenous in PDAC cell lines and CAFs)) (UniProt P0DMV8).
Chain of UniProt P0DMV8 (P0DMV8 whole entry): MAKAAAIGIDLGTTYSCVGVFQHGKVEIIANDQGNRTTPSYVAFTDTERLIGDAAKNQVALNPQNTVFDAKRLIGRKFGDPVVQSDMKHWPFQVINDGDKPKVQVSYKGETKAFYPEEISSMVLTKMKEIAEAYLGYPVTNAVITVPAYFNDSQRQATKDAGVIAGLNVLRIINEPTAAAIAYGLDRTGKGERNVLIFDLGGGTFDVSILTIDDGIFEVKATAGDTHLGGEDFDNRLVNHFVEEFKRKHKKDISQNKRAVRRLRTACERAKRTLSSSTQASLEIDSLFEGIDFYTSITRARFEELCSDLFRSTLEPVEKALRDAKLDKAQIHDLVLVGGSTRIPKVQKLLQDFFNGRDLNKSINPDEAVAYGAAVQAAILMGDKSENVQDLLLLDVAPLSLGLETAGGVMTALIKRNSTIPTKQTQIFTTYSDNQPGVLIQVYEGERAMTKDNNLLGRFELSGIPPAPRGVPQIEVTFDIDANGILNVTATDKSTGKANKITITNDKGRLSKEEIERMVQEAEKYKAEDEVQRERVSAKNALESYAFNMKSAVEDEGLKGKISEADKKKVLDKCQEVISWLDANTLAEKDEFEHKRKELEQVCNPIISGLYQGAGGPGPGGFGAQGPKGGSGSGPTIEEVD

Regarding “His tagged-recombinant Pn-ASV with exon 21 (Pn 2-1) (from UniProt Q15063-5 22-809) (natural protein)”, the % rescue by recombinant Pn 2-1 in GEM-treated AsPC1 cells, CTRL siRNA group (counteracted by HSPA1A knockdown) turned out to be 11.2%; the % rescue by recombinant Pn 2-1 in GEM-treated BxPC3 cells, CTRL siRNA group (counteracted by HSPA1A knockdown) was determined as 5.4%; the % rescue by recombinant Pn 2-1 in GEM-treated Panc1 cells, CTRL siRNA group (counteracted by HSPA1A knockdown) amounted to 86.3%.

Values taken from article PMC11641934.
